Molecular target: the molecule itself
Assay: native gel or EMSA; PAGE run under native conditions and Western blot with anti-His IgG of hLAMAN expressed in K. phaffii for the indicated time periods; single band at approx. 230 kDa

B1: Human lysosomal α‐mannosidase (enzyme, UniProt O00754 50-1011, looked up)
chain: GGYETCPTVQPNMLNVHLLPHTHDDVGWLKTVDQYFYGIKNDIQHAGVQYILDSVISALLADPTRRFIYVEIAFFSRWWHQQTNATQEVVRDLVRQGRLEFANGGWVMNDEAATHYGAIVDQMTLGLRFLEDTFGNDGRPRVAWHIDPFGHSREQASLFAQMGFDGFFFGRLDYQDKWVRMQKLEMEQVWRASTSLKPPTADLFTGVLPNGYNPPRNLCWDVLCVDQPLVEDPRSPEYNAKELVDYFLNVATAQGRYYRTNHTVMTMGSDFQYENANMWFKNLDKLIRLVNAQQAKGSSVHVLYSTPACYLWELNKANLTWSVKHDDFFPYADGPHQFWTGYFSSRPALKRYERLSYNFLQVCNQLEALVGLAANVGPYGSGDSAPLNEAMAVLQHHDAVSGTSRQHVANDYARQLAAGWGPCEVLLSNALARLRGFKDHFTFCQQLNISICPLSQTAARFQVIVYNPLGRKVNWMVRLPVSEGVFVVKDPNGRTVPSDVVIFPSSDSQAHPPELLFSASLPALGFSTYSVAQVPRWKPQARAPQPIPRRSWSPALTIENEHIRATFDPDTGLLMEIMNMNQQLLLPVRQTFFWYNASIGDNESDQASGAYIFRPNQQKPLPVSRWAQIHLVKTPLVQEVHQNFSAWCSQVVRLYPGQRHLELEWSVGPIPVGDTWGKEVISRFDTPLETKGRFYTDSNGREILERRRDYRPTWKLNQTEPVAGNYYPVNTRIYITDGNMQLTVLTDRSQGGSSLRDGSLELMVHRRLLKDDGRGVSEPLMENGSGAWVRGRHLVLLDTAQAAAAGHRLLAEQEVLAPQVVLAPGGGAAYNLGAPPRTQFSGLRRDLPPSVHLLTLASWGPEMVLLRLEHQFAVGEDSGRNLSAPVTLNLRDLFSTFTITRLQETTLVANQLREAASRLKWTTNTGPTPHQTPYQLDPANITLEPMEIRTFLASVQWKEVDG
notes: human lysosomal alpha-mannosidase (hLAMAN, EC 3.2.1.24), gene MAN2B1; That vector probably adds the alpha-factor secretion signal; it speaks of a homodimer of the polypeptides A-E, (A-E)2; also called hLAMAN; MAN2B1; source: K. phaffii X33 (pPICZalpha), methanol-induced; aliquots of pellet and supernatant analysed, not purified
stoichiometry N: 2
